According to the supplement of paper PMC9112550, “Optimization of the antimicrobial peptide Bac7 by deep mutational scanning” (BMC Biology, 2022):

Each sequence was assayed on Escherichia coli TOP10 (assay: shrunken log2 fold change of peptide-encoding DNA abundance (4.5 h post-induction vs induction); higher = less antimicrobial activity (less host growth inhibition)). Conditions: time post-induction: 4.5 h; library: site-saturation at positions 5, 18, 19, 20.
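Further: peptides expressed intracellularly from a pBAD plasmid library in pooled LB shake-flask culture, induced with 0.3% L-arabinose, DNA abundance read by NGS, three biological replicates, DESeq2 with apeglm shrinkage.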

| Sequence | shrunken log2 fold change |
| --- | --- |
| RRIRMRPPRLPRPRPRPAEVPRP | 0.411 |
| RRIRSRPPRLPRPRPRPFCAPRP | 0.0376 |
| RRIRVRPPRLPRPRPRPGVCPRP | 0.186 |
| RRIRMRPPRLPRPRPRPCNLPRP | -0.369 |
| RRIRERPPRLPRPRPRPYCQPRP | -0.0159 |
| RRIRDRPPRLPRPRPRPPPRPRP | 1.1 |
| RRIRGRPPRLPRPRPRPVWCPRP | 0.245 |
| RRIRLRPPRLPRPRPRPLERPRP | -0.000861 |
| RRIRWRPPRLPRPRPRPSEIPRP | -0.178 |
| RRIRYRPPRLPRPRPRPTDPPRP | -0.107 |
| RRIRCRPPRLPRPRPRPQLEPRP | -0.135 |
| RRIRCRPPRLPRPRPRPCNHPRP | -0.227 |
| RRIRHRPPRLPRPRPRPKKSPRP | -0.0145 |
| RRIRIRPPRLPRPRPRPMGNPRP | 0.0077 |
| RRIRVRPPRLPRPRPRPLHDPRP | -0.41 |
| RRIRIRPPRLPRPRPRPHLPPRP | -0.0411 |
| RRIRERPPRLPRPRPRPEGQPRP | -0.015 |
| RRIRTRPPRLPRPRPRPHSDPRP | -0.00801 |
| RRIRKRPPRLPRPRPRPFMKPRP | -0.157 |
| RRIRDRPPRLPRPRPRPGWFPRP | 0.297 |
| RRIRDRPPRLPRPRPRPWCKPRP | -0.171 |
| RRIRVRPPRLPRPRPRPNHFPRP | -0.346 |
| RRIRTRPPRLPRPRPRPVLEPRP | 0.179 |
| RRIRTRPPRLPRPRPRPTYGPRP | -0.104 |
| RRIRARPPRLPRPRPRPEAWPRP | -0.00193 |

| Sequence | shrunken log2 fold change |
| --- | --- |
| RRIRHRPPRLPRPRPRPFLSPRP | -0.187 |
| RRIRMRPPRLPRPRPRPVSQPRP | 0.712 |
| RRIRERPPRLPRPRPRPYDCPRP | -0.0948 |
| RRIRTRPPRLPRPRPRPELVPRP | 0.0224 |
| RRIRWRPPRLPRPRPRPDESPRP | -0.0029 |
| RRIRRRPPRLPRPRPRPWLHPRP | 0.333 |
| RRIRLRPPRLPRPRPRPFSGPRP | -0.374 |
| RRIRNRPPRLPRPRPRPRNTPRP | -0.505 |
| RRIRCRPPRLPRPRPRPDWPPRP | 0.187 |
| RRIRGRPPRLPRPRPRPMGDPRP | 0.783 |
| RRIRVRPPRLPRPRPRPSEEPRP | 0.00143 |
| RRIRVRPPRLPRPRPRPRPNPRP | 0.381 |
| RRIRPRPPRLPRPRPRPQNRPRP | -0.598 |
| RRIRKRPPRLPRPRPRPTYWPRP | 0.141 |
| RRIRRRPPRLPRPRPRPWSLPRP | 0.016 |
| RRIRQRPPRLPRPRPRPCCLPRP | -0.0936 |
| RRIRARPPRLPRPRPRPVGPPRP | 0.124 |
| RRIRWRPPRLPRPRPRPYQKPRP | -0.0398 |
| RRIRRRPPRLPRPRPRPFSLPRP | 0.0919 |
| RRIRERPPRLPRPRPRPRHLPRP | -0.427 |
| RRIRFRPPRLPRPRPRPFDGPRP | -0.251 |
| RRIRGRPPRLPRPRPRPACFPRP | 0.939 |
| RRIRARPPRLPRPRPRPQDLPRP | -0.0381 |
| RRIRKRPPRLPRPRPRPCTKPRP | 0.0518 |
| RRIRERPPRLPRPRPRPSIRPRP | -0.242 |

| Sequence | shrunken log2 fold change |
| --- | --- |
| RRIRARPPRLPRPRPRPKMIPRP | -0.0208 |
| RRIRGRPPRLPRPRPRPLCNPRP | 0.388 |
| RRIRWRPPRLPRPRPRPKWTPRP | -0.119 |
| RRIRARPPRLPRPRPRPEPGPRP | 0.98 |
| RRIRCRPPRLPRPRPRPYVPPRP | -0.323 |
| RRIRQRPPRLPRPRPRPAMIPRP | 0.103 |
| RRIRMRPPRLPRPRPRPGVRPRP | 1.42 |
| RRIRWRPPRLPRPRPRPRTLPRP | 0.565 |
| RRIRARPPRLPRPRPRPGIYPRP | -0.225 |
| RRIRERPPRLPRPRPRPGSYPRP | -0.868 |
| RRIRRRPPRLPRPRPRPRFQPRP | 0.555 |
| RRIRNRPPRLPRPRPRPSLTPRP | -0.266 |
| RRIRSRPPRLPRPRPRPHRMPRP | -0.697 |
| RRIRVRPPRLPRPRPRPCNVPRP | -0.452 |
| RRIRTRPPRLPRPRPRPFTLPRP | -0.312 |
| RRIRMRPPRLPRPRPRPHLLPRP | 0.137 |
| RRIRQRPPRLPRPRPRPRIKPRP | 0.127 |
| RRIRFRPPRLPRPRPRPIYSPRP | -0.751 |
| RRIRHRPPRLPRPRPRPHFLPRP | -0.0519 |
| RRIRFRPPRLPRPRPRPTEDPRP | 0.0193 |
| RRIRYRPPRLPRPRPRPCFPPRP | -1.06 |
| RRIRGRPPRLPRPRPRPYCRPRP | -0.237 |
| RRIRARPPRLPRPRPRPAIKPRP | 0.206 |
| RRIRWRPPRLPRPRPRPYDVPRP | -0.0559 |
| RRIRTRPPRLPRPRPRPGQAPRP | -0.228 |
